For the experiment, the target named is TNFR. Briefly: cell-based or functional assay.

B1: cynomolgus TNFα (ligand)
chain: VRSSSRTPSDKPVAHVVANPQAEGQLQWLNRRANALVANGVELTDNQLVVPSEGLYLIYSQVLFKGQGCPSNHVLLTHTISRIAVSYQTKVNLLSAIKSPCQRETPEGAEAKPWYEPIYLGGVFQLEKGDRLSAEINLPDYLDFAESGQVYFGIIAL
modifications: biotinylated in the binding ELISA (sites not given)
On to B1, for which the “EC50, stimulation of HEK-Blue TNFα cells (SEAP reporter)” value is 3.1 pM.

Source of the values: patent US20250154242A1 (ADAFRE BIOSCIENCES, published 2025).
